According to patent US20140179900A1:

biological target: monoclonal antibody 12G6H5 (“Frida”); assay: inhibition ELISA FIG. 18a, low peptide, 2.5 ng Frida, coat p4073

Binder | ELISA signal with competitor
CFGFPAHVFIDWLQSLN [p4474 C-…] | 1.45
FGFPEHLLVDFLQSLSC [p1208 …-C] | 0.712
CFGFPEHLLVDFLQSLS [p4073 C-…, original CETP epitope] | 0.537
CFGFPAHFSIDWLQSLS [p4475 C-…] | 2.21

Results, then the binder that gave them:

ELISA signal with competitor | Binder
2.23 | CFKPAHVFIDWLQSLS [p4478 C-…]
0.521 | CDFGFPAHVFIDWLQSLS [p4480 C-…]
2 | CFGFPAHVSFDWLQSLS [p4476 C-…]
2.17 | CGFKPAHVFIDWLQSLS [p4479 C-…]
0.551 | CFGFPQHLFTDWLQSLS [p4481 C-…]
0.808 | CFGFPEHVFIDWLQSLS [p4477 C-…]

biological target: monoclonal antibody 12G6H5 (“Frida”); assay: inhibition ELISA FIG. 18c, low peptide, 2.5 ng Frida, coat p4073

ELISA signal with competitor | Binder
1.28 | CAAFPAHAAADFLQALA [p4435 C-…]
0.942 | FGFPEHLLVDFLQSLSC [p1208 …-C]
0.635 | CFGFPSHIIIDWLQSLS [p4432 C-…]
1.63 | CAAFAAHLLADFLQAAA [p4436 C-…]
1.11 | CFGFPSHLIIEWLQSLS [p4433 C-…]
1.84 | CAAAPAHLLVDAAQAAA [p4437 C-…]
0.554 | CFGFPEHLLVDFLQSLS [p4073 C-…, original CETP epitope]
1.74 | CAAFPAHLLADAAQALA [p4434 C-…]

biological target: monoclonal antibody 12G6H5 (“Frida”); assay: inhibition ELISA FIG. 10a, 2 µg peptide, 2.5 ng Frida, coat p4073

ELISA signal with competitor | Binder
0.75 | CFGFPAHVYIDWLQSLS [p4362 C-…]
0.44 | CFGFPEHLLVDFLQSLS [p4073 C-…, original CETP epitope]
0.82 | CFGFPAHVFIDWLQSLS [p4361 C-…]

biological target: monoclonal antibody 12G6H5 (“Frida”); assay: inhibition ELISA FIG. 10b, 2 µg peptide, 2.5 ng Frida, coat p4073

ELISA signal with competitor | Binder
0.42 | CFGFPSHLIIDWLQSLS [p4325 C-…]
0.64 | CFGFPEHLLVDFLQSLS [p4073 C-…, original CETP epitope]

biological target: monoclonal antibody 12G6H5 (“Frida”); assay: inhibition ELISA FIG. 18a, high peptide, 2.5 ng Frida, coat p4073

Binder | ELISA signal with competitor
CFGFPAHVFIDWLQSLN [p4474 C-…] | 0.179
FGFPEHLLVDFLQSLSC [p1208 …-C] | 0.093
CFGFPEHLLVDFLQSLS [p4073 C-…, original CETP epitope] | 0.094
CFGFPAHFSIDWLQSLS [p4475 C-…] | 1.43

Further lines, results first:

ELISA signal with competitor | Binder
1.21 | CFKPAHVFIDWLQSLS [p4478 C-…]
0.103 | CDFGFPAHVFIDWLQSLS [p4480 C-…]
1.42 | CFGFPAHVSFDWLQSLS [p4476 C-…]
1.59 | CGFKPAHVFIDWLQSLS [p4479 C-…]
0.156 | CFGFPQHLFTDWLQSLS [p4481 C-…]
0.116 | CFGFPEHVFIDWLQSLS [p4477 C-…]

biological target: monoclonal antibody 12G6H5 (“Frida”); assay: inhibition ELISA FIG. 18c, high peptide, 2.5 ng Frida, coat p4073

ELISA signal with competitor | Binder
1.97 | CAAFPAHAAADFLQALA [p4435 C-…]
0.101 | FGFPEHLLVDFLQSLSC [p1208 …-C]
0.096 | CFGFPSHIIIDWLQSLS [p4432 C-…]
1.69 | CAAFAAHLLADFLQAAA [p4436 C-…]
0.672 | CFGFPSHLIIEWLQSLS [p4433 C-…]
1.67 | CAAAPAHLLVDAAQAAA [p4437 C-…]
0.088 | CFGFPEHLLVDFLQSLS [p4073 C-…, original CETP epitope]
1.46 | CAAFPAHLLADAAQALA [p4434 C-…]

biological target: monoclonal antibody 12G6H5 (“Frida”); assay: inhibition ELISA FIG. 10a, 20 µg peptide, 2.5 ng Frida, coat p4073

ELISA signal with competitor | Binder
0.15 | CFGFPAHVYIDWLQSLS [p4362 C-…]
0.1 | CFGFPEHLLVDFLQSLS [p4073 C-…, original CETP epitope]
0.16 | CFGFPAHVFIDWLQSLS [p4361 C-…]

biological target: monoclonal antibody 12G6H5 (“Frida”); assay: inhibition ELISA FIG. 10b, 20 µg peptide, 2.5 ng Frida, coat p4073

ELISA signal with competitor | Binder
0.1 | CFGFPSHLIIDWLQSLS [p4325 C-…]
0.15 | CFGFPEHLLVDFLQSLS [p4073 C-…, original CETP epitope]
